Test results from paper PMC5482197.

Legend:
[1] = target: recombinant soluble integrin αvβ3 (UniProt P06756); assay: SPR; soluble αvβ3 immobilized on a CM5 sensor chip by amine coupling; WT and mutant FGF2 two-fold serially diluted from 2 μM in HBS-P buffer (0.01 M Hepes, pH 7.4, 0.15 M NaCl, 0.0005% surfactant P20) with 1 mM Mn2+; 50 μl/min, 1.8 min injection, 3 min dissociation; WT: Kd is the average of Kd values of individual curves; K125E: global fit with a conformation-change model, Kd1 used as Kd
[2] = target: integrin α5β1 on K562 erythroleukaemia cells, P08648;P05556; assay: cell adhesion assay (K562 cells); conditions: K562 cells (αvβ3-, α5β1+), panel title K562_FGF2_RPMI, read off a plot

Sequence of UniProt P06756 (P06756 31-1048, chain 1 of 2): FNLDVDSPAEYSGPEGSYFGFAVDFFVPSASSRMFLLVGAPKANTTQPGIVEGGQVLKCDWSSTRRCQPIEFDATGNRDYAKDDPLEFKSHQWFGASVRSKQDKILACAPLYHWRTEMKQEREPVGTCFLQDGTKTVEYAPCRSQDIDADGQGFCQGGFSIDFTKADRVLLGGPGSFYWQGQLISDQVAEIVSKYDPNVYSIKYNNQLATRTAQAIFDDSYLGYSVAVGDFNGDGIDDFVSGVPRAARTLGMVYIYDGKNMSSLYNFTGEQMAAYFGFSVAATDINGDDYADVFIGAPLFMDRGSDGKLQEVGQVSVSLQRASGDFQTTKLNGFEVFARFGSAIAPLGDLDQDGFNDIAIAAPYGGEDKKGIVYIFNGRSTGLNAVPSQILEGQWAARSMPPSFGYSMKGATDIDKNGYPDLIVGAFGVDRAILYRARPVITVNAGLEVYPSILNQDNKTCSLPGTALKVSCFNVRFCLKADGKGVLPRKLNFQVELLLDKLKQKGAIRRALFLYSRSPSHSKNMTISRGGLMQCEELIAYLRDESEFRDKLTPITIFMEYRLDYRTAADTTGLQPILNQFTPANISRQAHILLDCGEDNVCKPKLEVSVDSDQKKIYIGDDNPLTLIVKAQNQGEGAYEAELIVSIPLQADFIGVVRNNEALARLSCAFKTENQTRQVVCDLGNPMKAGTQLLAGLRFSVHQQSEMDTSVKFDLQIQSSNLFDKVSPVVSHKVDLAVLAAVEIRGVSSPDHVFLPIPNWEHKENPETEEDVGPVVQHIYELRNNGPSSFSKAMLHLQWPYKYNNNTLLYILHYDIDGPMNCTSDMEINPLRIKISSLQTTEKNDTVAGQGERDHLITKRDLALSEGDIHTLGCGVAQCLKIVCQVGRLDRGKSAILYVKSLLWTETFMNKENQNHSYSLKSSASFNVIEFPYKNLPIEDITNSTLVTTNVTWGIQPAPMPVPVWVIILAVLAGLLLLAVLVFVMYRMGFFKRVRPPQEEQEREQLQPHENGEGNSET
Sequence of UniProt P06756 (P05106 27-718, chain 2 of 2, further chain): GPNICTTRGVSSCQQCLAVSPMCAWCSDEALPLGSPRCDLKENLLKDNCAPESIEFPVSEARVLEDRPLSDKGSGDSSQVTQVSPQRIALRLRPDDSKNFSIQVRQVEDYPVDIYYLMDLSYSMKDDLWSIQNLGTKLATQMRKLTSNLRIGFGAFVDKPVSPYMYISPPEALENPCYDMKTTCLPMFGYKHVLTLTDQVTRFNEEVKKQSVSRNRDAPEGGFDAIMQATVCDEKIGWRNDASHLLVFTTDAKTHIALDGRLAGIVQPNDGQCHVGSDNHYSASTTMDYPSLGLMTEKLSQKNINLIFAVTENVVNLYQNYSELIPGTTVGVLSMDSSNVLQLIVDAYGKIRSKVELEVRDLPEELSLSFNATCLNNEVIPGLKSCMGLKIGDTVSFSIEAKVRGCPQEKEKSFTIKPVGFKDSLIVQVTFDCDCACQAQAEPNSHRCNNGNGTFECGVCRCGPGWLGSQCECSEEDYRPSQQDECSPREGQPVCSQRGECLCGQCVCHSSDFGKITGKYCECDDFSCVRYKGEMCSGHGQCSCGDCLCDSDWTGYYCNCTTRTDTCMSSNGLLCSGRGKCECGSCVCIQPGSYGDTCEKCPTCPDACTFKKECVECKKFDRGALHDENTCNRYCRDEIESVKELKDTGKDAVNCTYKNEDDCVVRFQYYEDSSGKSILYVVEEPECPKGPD
Sequence of wild-type human FGF2 (fibroblast growth factor 2) (P09038 143-288): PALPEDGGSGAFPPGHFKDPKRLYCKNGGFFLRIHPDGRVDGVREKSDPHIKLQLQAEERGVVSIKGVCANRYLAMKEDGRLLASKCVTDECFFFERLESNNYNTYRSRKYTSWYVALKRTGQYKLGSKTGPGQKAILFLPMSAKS

## FGF2 K125E mutant (ligand)
[1]
  Kd1 (A + B <=> AB, first step of the conformation-change model; used by the paper as the binding Kd): 1.1 µM

## wild-type human FGF2 (fibroblast growth factor 2) K39E
[2]; FGF2 2.5 µg/ml, parent: est. 63
  response: 27 % adhesion
[2]; FGF2 5 µg/ml, parent: est. 84
  response: 68 % adhesion
[2]; FGF2 20 µg/ml, parent: est. 85
  response: 89 % adhesion

## wild-type human FGF2 (fibroblast growth factor 2) (ligand)
[1]
  Kd: 77.5 nM
